Test results as given in the supplement of paper PMC9170038.

System: MS2 coat protein
Experiment: apparent KD of MS2 coat protein; higher = weaker reporter binding
Details: Eterna round: R107
Method in brief: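 Designed RNA switches were transcribed on-chip from Illumina sequencing clusters. SNAP-549-labelled MS2 coat protein was titrated onto them in twofold steps from 0.7 or 1.5 nM to 3 µM in 100 mM Tris-HCl pH 7.5, 80 mM KCl, 4 mM MgCl2, either without or with constant ligand. Apparent KD reflects the per-design median of normalised cluster binding-curve fits.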

[1] = input ligand: theophylline 20 uM
[2] = input ligand: tryptophan 2.4 mM
[3] = input ligand: theophylline 2 mM

Sequence	apparent KD of MS2 coat protein (input ligand: arginine 13.2 mM) [nM]	apparent KD of MS2 coat protein [1] [nM]	apparent KD of MS2 coat protein [2] [nM]	apparent KD of MS2 coat protein [3] [nM]	apparent KD of MS2 coat protein (input ligand: none) [nM]
AGACAUGAGGAUCACCCAUGUAGUAUGGAUACCAGAUCCAGAUUUAUCCCUUGGCAGCUGUGGUACAGCGAUGGAUCGCUCCUAG [Exclusion - Theophylline A (Freestyle 11)]	22.6	34	28	–	–
AGACAUGUAAGAUAAAUGACUUAUACAGAUACCAGACUAGUCAAUGUCCCUUGGCAGCUGCAUAACAUGAGGAUCACCCAUGUAA [JR_ExcTheophyA_Sub009]	20.6	27.5	24.4	–	–
AGAGCAUUGACGGCCGCCACUCGUGUCACAUGAGGAUCACCCAUGUGACGGGUGAUCGCCCGGUUGAGGACCGGGUCAAUGCUCA [Omei Tryp SS B v8]	10.4	13	–	11.2	–
AGAGUCUAGUCGGCCGCCACUCAUGUCCAAAGGACAUGAGGAUCACCCAUGUACCAAUGGUACAUGAGGACCGGGACUGGACUCA [Omei Tryp B SS C v2]	227	343	–	120	–
AGAGUUAGACAAAAGUCUAGCUCACCAGAAGGAGCGUCCGAAAGGACAGGUAGGUCGCUGGUACAUGAGCAUCAGCCAUGUUCCU [ArgAS 15 #OpenEnded #AlternativeMS2]	18.1	28	24.1	28.5	23.7
AGAGUUAGACAAAAGUCUAGCUCACCAGAAGGAGCGUCCGAAAGGACAGGUAGGUCGCUGGUGCAUGAGGAUCACCCAUGCUCCU [ArgAS 19 #OpenEnded #AlternativeMS2]	66.6	171	211	243	204
AGAGUUAGACAAAAGUCUAGCUCACCAGAAGGAGCGUCCGAAAGGACAGGUAGGUCGCUGGUGCUUGAGGAUCACCCAAGUUCCU [ArgAS 22 #OpenEnded #AlternativeMS2]	82.7	121	128	204	96.1
AGCAACUAGUCGGCCGCCACUCAUAUUACAUGAGGAUCACCCAUGUAUACAUGGUUGUUAUAUUUGAGGACCGGGACAGUUGCAU [JR_SSTryptoB_Sub018]	59	69.9	–	75.7	–
AGCACACAUCCUGAUACCAGAGACAUGAGGAUCACCCAUGUCCGAUCGUCCUGCCUCAGACUCCCUUGGCAGCAGGAUGUGUGCU [Exclusion Theophylline B GF7]	12.5	18.6	13.4	–	–
AGCAUCUAGUCGGCCGCCACUCUUAUUACAUGAGGAUCACCCAUGUUUAAUUCAUGGUUAUAUUUGAGGACCGGGACAUUUGCAU [JR_ExcTryptoB_Sub007]	39.7	70.2	–	74.9	–
AGCCACUCGAGUGAUCCUCACGAGUGGCUACGAGGACCGGUACGGCCGCCACUCGAAUUAACAUGAGGAUCACCCAUGUAAUCAC [Brourdmod05]	81.1	135	–	597	–
AGCCCAUUACAUGAGGAUCACCCAUGUGAUACCAGUCAGGAAACUGACCCUUGGCAGCGCAUGAGGAUCACCCAUGCGCUGGGCA [Omei Theo A Exc A v6]	10	11.7	12.2	–	–
AGCGACAUGCGUGAUACCAGCUACAUGAGGAUCACCCAUGUAAGUAGGAAACUACUGUGUAGCCCUUGGCAGCACAAUGCAUGUC [Exclusion - Theophylline B (Freestyle 24)]	20.3	37.2	20	–	–
AGCGAGAUCCGUGAUACCAGCUACAUGAGGAUCACCCAUGUGAGCGCGAAAGUGCUGUGUAGCCCUUGGCAGCACAGUGGAUCUC [#29 Exclusion-TheophyllineB]	8.84	14.6	11.3	–	–
AGCGCGAAUAGAUCCAAAGUUAUUAGUGAGCGAGGACCGGUACGGCCGCCACUCGUGGCUCUACAUGAGGAUCACCCAUGUACAU [theeternabot_exclusion_MS2_Trp_A_10]	52.2	234	–	384	–
AGCGUGCAUAGGAAAACUAUGUACGCAAAUCGAGGACCGGUACGGCCGCCACUCGUCCUCAACAUGAGGAUCACCCAUGUAAUAA [Mat - Exclusion - Trytophan A - D9]	18.9	26.7	–	22.5	–
AGCUCGCGAAAGCGAGCAACAUGAUCCGAAGGAGCGCGCGAAAGCGCAGGUAGGUCGCGGACAUGAGGAUCACCCAUGUCUCCUU [MAT - Exclusion Arginine A - Mod of Eli - D14]	41	57.3	62.2	63.2	66.2
AGCUCUGAUACGGCCGCCACUAGAUGGUGUUGUAAGAGACGCCUACAUGAGGAUCACCCAUGUCAUAGGACCGGGUAUAAAUACA [theeternabot_sameState_MS2_Trp_B_8]	27.8	30.7	18.2	46.4	26.4

Sequence	apparent KD of MS2 coat protein (input ligand: arginine 13.2 mM) [nM]	apparent KD of MS2 coat protein [1] [nM]	apparent KD of MS2 coat protein [2] [nM]	apparent KD of MS2 coat protein [3] [nM]	apparent KD of MS2 coat protein (input ligand: none) [nM]
AGGAAGACGAUGGAUACCAGACAACCAGGGAACAUGAGGAUCACCCAUGUGAUUGAAAGGGUCCCUUGGCAGCCAGAAGCCGUUG [theeternabot_sameState_MS2_Theo_B_31]	68.5	173	130	–	–
AGGACAUCGGGAAGGAGCGCAUCCAAACCACACAUGAGGAUCACCCAUGUAUAAAUAUGCAUGCAGGUAGGUCGCCCGGUGUCUC [Veaza]	77	140	108	137	109
AGGUACGAAAACGUGGGUGAGUCGUACCAACGAGGACCGGUACGGCCGCCACUCGAAUAAACAUGAGGAUCACCCAUGUAAUAAU [T''-M-T'-T-MS2 - Design 6]	25	58.3	–	66.5	–
AGUAGCUGCCGAAGGAGCGCCGUGUUCCUACAUGAGGAUCACCCAUGUAGCGUUGGGUUACGGCAGGUAGGUCGCGGCAGAUAGG [#18 Same State - Arginine B]	23.1	38.2	22.4	24.5	30
AGUAGUUGACAAAAGUCAGCUACAACUGAAGGAGCGGGUGGGUGCCCAGGUAGGUCGCAGGAACAUGAGGAUCACCCAUGUAUAA [ArgAS 3 #BothOrNeither #OpenEnded]	35.9	40.3	18.5	32.2	22.7
AGUCUUGUAGGAAGGAGCGCAUACUUCACAUGAGGAUCACCCAUGUCAAGACGUGAGUCAGUGCAGGUAGGUCGCCUAACUAAGA [Same State - Arginine B (Freestyle 14)]	18.6	28.7	18	26.3	17.3
AGUGUUAUAACUGAUACCAGACCUUUGCUUAUACAUGAGGAUCACCCAUGUAAAAUGGCUGUCCCUUGGCAGCAGAGAAUACACA [#07 Same State - Theophylline B]	42.9	45.2	47.1	–	–
AGUUUAGACACGGCCGCCACUCGUGACAGAUUUCGCAGUGGUCAACAUGAGGAUCACCCAUGUCUGAGGACCGGGUGUUGAGUUU [XTryp B #7]	45.2	48.7	–	53.4	–
AUAACAUGAGGAUCACCCAUGUAAGCAGAUACCAGCUAGGAAACUAGCCCUUGGCAGCUGCAAGGUGAUCCUGCUGCCAAGGUAU [(M1)-(M2)-(T1)-(T2)-(M)'-(T)'_Design7]	117	187	209	130	233
AUAACAUGAGGAUCACCCAUGUAAGCUGAAGGAGCGGACGAAAGUCCAGGUAGGUCGCAGCGCUCCUUCUGGUGAUCUGAAGGAG [(M1)-(M2)-(Arg1)-(Arg2)-(A)'-(M)'-(A)''_Design3]	103	154	138	87.8	151
AUAACAUGAGGAUCACCCAUGUAUUGGUAACGAGGACCGGUACGGCCGCCACUCGUAUUUUGGUGGUAUUAUAUAUAUAUGAUUA [JR_SSTryptoA_Sub017]	24.1	28.9	–	20.6	–
AUAACGAGUGGUGGAUAAUCCUCAUGUAAACGAGGACCGGUACGGCCGCCACUCGAUAACAUGAGGAUCACCCAUGUAAUAAUAA [|T'-M'-Trp-Ms2|_Design17]	25.9	20.8	–	21.3	–
AUAAUUGGGUUAAUUAGUUUUAGGUCCAGUCGAGGACCGGUACGGCCGCCACUCGUUCCGAGAUACAUGAGGAUCACCCAUGUUA [JR_ExcTryptoA_Sub015]	17.3	34.5	–	31	–
AUACAUGAGGAUCACCCAUGUAUAGUUGAAGGAGCGACCAGAGGGUCAGGUAGGUCGCAGCACAUGAGGAUCACCCAUGUAUUUU [#1 Exclusion - Arginine A Attempt #14 (Inspired by Pi)]	32.6	40.3	27.3	35.1	38
AUACAUGAGGAUCACCCAUGUCAUUCAGAAGGAGCGUCAUUUUAGACAGGUAGGUCGCUGAUAUUAUCUUUAUACUUUAUGUUUA [JR_ExcArginiA_Sub023]	19.1	27.3	19.9	18.2	18.3
AUACAUGAGGAUCACCCAUGUUACACUGAAGGAGCGACAUGUUUGUCAGGUAGGUCGCAGUGAAGUUUAAUAAAUAGUUGAUCUU [#07 Same State - Arginine A]	37.6	56.8	37	62.6	57
AUACAUGAGGCGGCCGCCACUUUACAUGAGGAUCAACAUGAGGAUCACCCAUGUUACAUGUGGAUAAGGACCGGGCCUCAUGUAU [Same State Tryptophan B 2]	51.9	178	91.2	313	180
AUACCUAAUGUUACAUUUUCCUUUUCAGAUACCAGACUUUACGUUGUCCCUUGGCAGCUGUAUCACAUGAGGAUCACCCAUGUUG [JR_SSTheophyA_Sub009]	17.3	20.7	17	–	–
